US20220340646A1 (OSAKA CITY UNIVERSITY, published 2022)
Non-standard residues stand in square brackets, D forms with d. No end group written: not given here. pT = C[C@@H](OP(=O)(O)O)[C@H](N)C(=O)O; pS = N[C@@H](COP(=O)(O)O)C(=O)O

T1: pT217 tau peptide
T1 construct: Partial peptide of tau coated on the ELISA plate
T1 peptide: PSLP[pT]PPTR

T2: pS199 tau peptide
T2 construct: Partial peptide of tau coated on the ELISA plate
T2 peptide: SGYS[pS]PGSPG

T3: pS214 tau peptide
T3 peptide: SRSRTP[pS]LPTP

T4: pT212/pS214 tau peptide
T4 peptide: SRSR[pT]P[pS]LPTP

T5: pS46 tau peptide
T5 construct: Partial peptide of tau coated on the ELISA plate
T5 peptide: GLKE[pS]P

T6: pS202 tau peptide
T6 construct: Partial peptide of tau coated on the ELISA plate
T6 peptide: SSPG[pS]SPGTPC

T7: pT212 tau peptide
T7 construct: Partial peptide of tau coated on the ELISA plate
T7 peptide: SRSR[pT]PSLPTP


Tests used:
[1] = target: pSer413(Im) peptide (human); experiment: SPR (Biacore 3000), antibody captured by anti-mouse antibody, peptide as analyte, single cycle kinetics
pSer413(Im) peptide (human), sequence (peptide, as listed by the source): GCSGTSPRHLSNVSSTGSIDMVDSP

pT217 tau peptide = target: T1, pT217 tau peptide; experiment: peptide ELISA
pS199 tau peptide = target: T2, pS199 tau peptide; experiment: peptide ELISA
pS214 tau peptide = target: T3, pS214 tau peptide; experiment: peptide ELISA
pT212/pS214 tau peptide = target: T4, pT212/pS214 tau peptide; experiment: peptide ELISA
pS46 tau peptide = target: T5, pS46 tau peptide; experiment: peptide ELISA
pS202 tau peptide = target: T6, pS202 tau peptide; experiment: peptide ELISA
pT212 tau peptide = target: T7, pT212 tau peptide; experiment: peptide ELISA
pS412-BSA = target: T8, pS412-BSA (phosphorylated as its name says (pS412); conjugated to BSA); experiment: peptide ELISA
T8 construct: BSA-conjugated tau peptide coated on the ELISA plate
T8 sequence (P02769 25-607 limits assumed): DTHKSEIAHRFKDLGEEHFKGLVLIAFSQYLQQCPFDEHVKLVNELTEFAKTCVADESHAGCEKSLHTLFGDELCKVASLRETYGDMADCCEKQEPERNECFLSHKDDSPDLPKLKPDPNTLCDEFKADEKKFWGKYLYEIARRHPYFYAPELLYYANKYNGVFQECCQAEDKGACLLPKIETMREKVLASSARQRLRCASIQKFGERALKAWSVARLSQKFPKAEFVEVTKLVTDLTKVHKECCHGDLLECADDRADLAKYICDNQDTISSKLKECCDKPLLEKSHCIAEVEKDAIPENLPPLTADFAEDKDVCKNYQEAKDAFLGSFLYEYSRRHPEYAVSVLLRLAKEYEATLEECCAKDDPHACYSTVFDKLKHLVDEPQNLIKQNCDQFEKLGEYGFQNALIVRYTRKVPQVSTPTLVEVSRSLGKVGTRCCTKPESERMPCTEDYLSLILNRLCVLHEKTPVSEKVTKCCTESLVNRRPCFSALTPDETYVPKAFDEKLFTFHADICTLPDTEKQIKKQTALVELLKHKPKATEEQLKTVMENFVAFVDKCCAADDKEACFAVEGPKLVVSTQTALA

pS400-BSA = target: T9, pS400-BSA (phosphorylated as its name says (pS400); conjugated to BSA); experiment: peptide ELISA
T9 construct: BSA-conjugated tau peptide coated on the ELISA plate
T9 sequence (P02769 25-607 limits assumed): as above

Binder | Kd [1] [nM] | koff [1] [s⁻¹] | kon [1] [M⁻¹ s⁻¹] | binding result (pT217 tau peptide) | binding result (pS199 tau peptide) | binding result (pS214 tau peptide) | binding result (pT212/pS214 tau peptide) | binding result (pS46 tau peptide) | binding result (pS202 tau peptide) | binding result (pT212 tau peptide) | binding result (pS412-BSA) | binding result (pS400-BSA)
Ta1505 (antibody, V domains shown, also called Ta1505-2) VH: EVQLVESGGGLVQPKGSLKLSCAASGFAFNSFALNWVRQAPGKSLEWVVHIRSKTNNYATFYADSVKDRFTVSRDDSQSMVYLQMNNLKTEDTGIYYCVRRGPRDSWFGYWGQGTLVTVSA VL: DILMTQTPLSLPVSLGDQASISCRSSQNIVHSNGNTYLEWYLQKPGQSPKVLIYTVSNRFSGVPDRFSGSGSGTDFTLKISRVEAEDLGVYYCFQGSHLPLTFGGGTKL | 3.87 | 0.000499 | 129000 | no binding (tested: 1 µg/mL) | no binding (tested: 1 µg/mL) | no binding (tested: 1 µg/mL) | no binding (tested: 1 µg/mL) | no binding (tested: 1 µg/mL) | no binding (tested: 1 µg/mL) | no binding (tested: 1 µg/mL) | no binding (tested: 1 µg/mL) | no binding (tested: 1 µg/mL)
Ta1509 (antibody, V domains shown, also called Ta15 Series) VH: EVQLVESGGGLVQPKGSLKLSCAASGFAFNSFAMNWVRQAPGKGLDWIAHIRSKSNNYVTFYADSVKDRFIISRDDSQSMIYLQMNNLKTEDSGIYYCVRRGPRDSWFGYWGQGTLVTVSA VL: DVLMTQSPLSLPVSLGDQASISCRSSQNIVHTNGNTYLEWYLQKPGQSPKVLIYTVSNRFSGVPDRFSGSGSGTDFTLKISRVEAEDLGVYYCFQGSHLPLTFGGGTKL | 14.4 | 0.00125 | 87100 | no binding (tested: 1 µg/mL) | no binding (tested: 1 µg/mL) | no binding (tested: 1 µg/mL) | no binding (tested: 1 µg/mL) | no binding (tested: 1 µg/mL) | no binding (tested: 1 µg/mL) | no binding (tested: 1 µg/mL) | no binding (tested: 1 µg/mL) | no binding (tested: 1 µg/mL)
Ta1506 (antibody, V domains shown, also called Ta15 Series) VH: EVHLVESGGGLVQPKGSLKLSCAASGFAFNSFAMNWVRQAPGKALDWIAHIRSKTNNYVTFYADSVKGRFSISRDDSQSMVYLQMNNLQTEDTGIYYCVRRGPRDSWFGYWGQGTLVTVSA VL: GVLMTQIPLSLPVSLGDQASISCRSSQNIVHSNGNTYLEWYLQKPGQSPKVLIYTVSNRFSGVPDRFSGSGSGTDFTLKISRVEAEDLGVYYCFQGSHLPLTFGGGTKL | 9.75 | 0.00194 | 199000 | no binding (tested: 1 µg/mL) | no binding (tested: 1 µg/mL) | no binding (tested: 1 µg/mL) | no binding (tested: 1 µg/mL) | no binding (tested: 1 µg/mL) | no binding (tested: 1 µg/mL) | no binding (tested: 1 µg/mL) | no binding (tested: 1 µg/mL) | no binding (tested: 1 µg/mL)
Ta1508 (antibody, V domains shown, also called Ta15 Series) VH: EVHLVESGGGLVQPKGSLKLSCAASGFAFNSFAMNWVRQAPGKGLDWIAHIRSKTNNYVTFYADSVKGRFSISRDDSQSMVYLQMNNLQTEDTGIYYCVRRGPRDSWFGYWGQGTLVTVSA VL: VVLMTQTPLSLPVSLGDQASISCRSSQNIVHSNGNTYLEWYLQKPGQSPKVLIYTVSNRFSGVPDRFSGSGSGTDFTLKISRVEAEDLGVYYCFQGSHLPLTFGGGTKL | 6.76 | 0.00098 | 145000 | no binding (tested: 1 µg/mL) | no binding (tested: 1 µg/mL) | no binding (tested: 1 µg/mL) | no binding (tested: 1 µg/mL) | no binding (tested: 1 µg/mL) | no binding (tested: 1 µg/mL) | no binding (tested: 1 µg/mL) | no binding (tested: 1 µg/mL) | no binding (tested: 1 µg/mL)
Ta1502 (antibody, V domains shown, also called Ta15 Series) VH: EVQLVESGGGLVQPKGSLKLSCAASGFAFNSFALNWVRQAPGKSLEWVVHIRSKTNNYATFYADSVKDRFTVSRDDSQNMVYLQMNNLKTEDTGIYYCVRRGPRDSWFGYWGQGTLVTVSA VL: DILMTQTPLSLPVSLGDQASISCRSSQNIVHSNGNTYLEWYLQKPGQSPKVLIYTVSNRFSGVPDRFSGSGSGTDFTLKISRVEAEDLGVYYCFQGSHLPLTFGGGTKL | 4.2 | 0.00047 | 112000 | no binding (tested: 1 µg/mL) | no binding (tested: 1 µg/mL) | no binding (tested: 1 µg/mL) | no binding (tested: 1 µg/mL) | no binding (tested: 1 µg/mL) | no binding (tested: 1 µg/mL) | no binding (tested: 1 µg/mL) | no binding (tested: 1 µg/mL) | no binding (tested: 1 µg/mL)
Ta1501 (antibody, V domains shown, also called Ta15 Series) VH: EVHLVESGGELVQPKGSLKLSCAASGFAFNSFAMNWVRQTPGKGLNWVAHIRSKTNNYATFYADSVKDRFTISRDDSQNMLYLQMNNLKTEDTGIYYCVRRGPRDSWFGYWGQGTLVTVSA VL: DVLMTQTPLSLPVSLGDHASISCRSSQNIVHSNGNTYLEWYLQKPGQSPKVLIYTVSNRFSGVPDRFSGSGSGTDFTLKISRVEAEDLGVYYCFQGSHLPLTFGGGTKL | 18.6 | 0.00105 | 56400 | no binding (tested: 1 µg/mL) | no binding (tested: 1 µg/mL) | no binding (tested: 1 µg/mL) | no binding (tested: 1 µg/mL) | no binding (tested: 1 µg/mL) | no binding (tested: 1 µg/mL) | no binding (tested: 1 µg/mL) | no binding (tested: 1 µg/mL) | no binding (tested: 1 µg/mL)
Ta1507 (antibody, V domains shown, also called Ta15 Series) VH: EIQLVESGGGLVQPKGSLKLSCAASGFAFSSFALNWVRQAPGKSLDWVAHIRSKANHYVTFYADSVKDRFTVSRDDSQSMVYLQMNNLKTEDTGIYYCVRRGPRDSWFGYWGQGTLVTVSA VL: DVLLTQTPLSLPVSLGDQASISCRSSQNIVHSNGNTYLEWYLQKPGQSPKVLIYTVSNRFSGVPDRFSGSGSGTDFTLKISRVEAEDLGVYYCFQGSHLPLTFGGGTKL | 4.2 | 0.000533 | 127000 | no binding (tested: 1 µg/mL) | no binding (tested: 1 µg/mL) | no binding (tested: 1 µg/mL) | no binding (tested: 1 µg/mL) | no binding (tested: 1 µg/mL) | no binding (tested: 1 µg/mL) | no binding (tested: 1 µg/mL) | no binding (tested: 1 µg/mL) | no binding (tested: 1 µg/mL)
